The record followed here is PMC12638309.

Assay [1] deals with T1, Ste2, native ɑ-factor pheromone-sensing mating GPCR (S. cerevisiae) (UniProt D6VTK4).
T1 sequence: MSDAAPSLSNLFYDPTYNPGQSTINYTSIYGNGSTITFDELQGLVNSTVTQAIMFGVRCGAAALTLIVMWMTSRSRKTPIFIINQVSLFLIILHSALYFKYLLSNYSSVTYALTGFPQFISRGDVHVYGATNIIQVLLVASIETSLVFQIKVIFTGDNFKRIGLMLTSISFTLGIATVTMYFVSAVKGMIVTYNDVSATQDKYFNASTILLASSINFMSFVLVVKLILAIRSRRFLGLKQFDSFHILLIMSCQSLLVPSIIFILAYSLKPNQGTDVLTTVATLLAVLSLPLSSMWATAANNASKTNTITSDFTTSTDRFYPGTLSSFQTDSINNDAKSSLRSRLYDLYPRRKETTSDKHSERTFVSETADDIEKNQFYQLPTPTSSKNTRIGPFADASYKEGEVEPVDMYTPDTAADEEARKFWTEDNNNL

The target in assay [2] is T1, Ste2, native ɑ-factor pheromone-sensing mating GPCR (S. cerevisiae). The source holds these as a separate data set.
Assay [3] deals with T2, Mam2, fungal peptide-sensing GPCR (P-factor) (UniProt Q00619).
T2 sequence: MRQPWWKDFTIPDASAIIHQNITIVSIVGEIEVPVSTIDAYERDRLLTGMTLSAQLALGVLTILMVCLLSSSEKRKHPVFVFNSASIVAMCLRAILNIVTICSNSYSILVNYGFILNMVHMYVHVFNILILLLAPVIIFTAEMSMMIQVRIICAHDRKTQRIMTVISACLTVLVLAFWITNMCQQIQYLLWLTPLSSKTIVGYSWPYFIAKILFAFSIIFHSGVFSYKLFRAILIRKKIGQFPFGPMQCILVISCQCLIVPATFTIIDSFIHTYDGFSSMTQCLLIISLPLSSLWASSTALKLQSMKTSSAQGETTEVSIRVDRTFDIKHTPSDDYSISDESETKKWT

In assay [1], WHWLQLKPGQPMY [ɑ-factor] yielded a fold change of surface-displayed CD19 (P FUS1-CD19 output of the pheromone response pathway, flow cytometry) in yeast expressing Ste2 (DIX45), 0, 0.01 and 1 µM ɑ-factor, 20 h, pH 5 of 312 fold. For the same molecule, in assay [2], the fold up-regulation of surface-displayed CD19 from P FIG1 in Ste2 yeast, 0-100 µM ɑ-factor, 20 h came out at 630 fold; the fold up-regulation of surface-displayed CD19 from P FUS1 in Ste2 yeast, 0-100 µM ɑ-factor, 20 h was 774 fold; the fold up-regulation of surface-displayed CD19 from P MFA2 in Ste2 yeast, 0-100 µM ɑ-factor, 20 h was 323 fold; the fold up-regulation of surface-displayed CD19 from P TDH3 (pheromone response pathway boost) in Ste2 yeast, 0-100 µM ɑ-factor, 20 h worked out at 3.1 fold.

In turn, TYADFLRAYQSWNTFVNPDRPNL [P-factor] returned a fold change of surface-displayed CD19 (P FUS1-CD19 output of the pheromone response pathway, flow cytometry) in yeast expressing Mam2 (DIX60), 0, 1 and 10 µM P-factor, 20 h, pH 5 in assay [3] of 249 fold.
